According to publication PMC5766103 (PLoS ONE, 2018):
One block for each molecule: values may come before it.

Assays:
[1] = clinical trials, moderate to severe psoriasis; ref [7]–[9]; cited from earlier work
Description: Augmented expression of IL-17A is linked with various autoimmune disorders. Therefore, blocking activity of IL-17A has been of great therapeutic interest. Two approved antibody based therapeutics targeting IL-17A, Secukinumab and Ixekizumab, are currently being used for treatment of moderate to severe psoriasis. […] Moreover, current advanced clinical trials have shown promising results for treatment of ankylosing spondylitis and psoriatic arthritis ...

IL-17A = molecular target: T1, IL-17A (Homo sapiens, UniProt Q16552); experiment: Surface plasmon resonance (BIAcore T200) binding of peptides to captured Avi-tagged IL-17A; settings: 8°C, 50 μl/min, 10 mM HEPES pH 7.5, 150 mM NaCl, 0.005% P20, 3% DMSO; global fit, 1:1 binding model; read-out: SPR KD1
T1 construct: His-tag; Flag-tag; made in house; host or cells: Sf9 insect cells (baculovirus)

[2] = molecular target: Avi-tagged IL-17A (IL-17A molecule with a single biotin tag per dimer) (human) (UniProt Q16552); experiment: SPR; Avi-tagged IL-17A (6000–9000 RU) captured on a streptavidin chip; peptides flowed at 50 μl/min; 8°C; 10 mM HEPES pH 7.5, 150 mM NaCl, 0.005% P20, 3% DMSO; global fit, 1:1 binding model
[3] = molecular target: Avi-tagged IL-17A (IL-17A molecule with a single biotin tag per dimer) (human) (UniProt Q16552); experiment: AlphaScreen or HTRF; AlphaLISA competition: 2 nM IL-17RA-flag and 2 nM Avi-tagged IL-17A-His with peptide dilutions, 2 h at room temperature; streptavidin donor and anti-FLAG acceptor beads; 20 mM HEPES, 150 mM NaCl, 0.05% Tween-20, 0.1% HSA, pH 7, 1% DMSO; relative IC50, four parameter fit
[4] = molecular target: the molecule itself; experiment: crystal structure; IL-17A at 7.1 mg/ml with 2 mM peptide; crystals at 8°C in 20% PEG 3350, 200 mM lithium chloride; 1.6 Å

Molecule: Ixekizumab: approved antibody based therapeutic targeting IL-17A
- patient population with at least 75% reduction of disease severity (PASI75) [1]: 80%

- Kd (IL-17A): 1300 nM
Molecule: CSCC[C@@H]1NC(=O)[C@H](CC(=O)O)NC(=O)[C@H](Cc2ccc(O)cc2)NC(=O)[C@H](CCC(=O)O)NC(=O)[C@H](CC(C)C)NC(=O)[C@H](C(C)C)NC(=O)[C@H](Cc2c[nH]c3ccccc23)NC(=O)[C@@H](N)CSSC[C@@H](C(=O)N[C@@H](CCCNC(=N)N)C(=O)O)NC(=O)[C@H](Cc2c[nH]cn2)NC(=O)[C@H](CC(C)C)NC(=O)[C@H](C)NC(=O)CNC(=O)[C@H](Cc2ccccc2)NC1=O [18–902]

Molecule: Secukinumab: approved antibody based therapeutic targeting IL-17A
- patient population with at least 75% reduction of disease severity (PASI75) [1]: 80%

- Kd [2]: 3870 nM
- koff [2]: 0.0528 s⁻¹
- kon [2]: 13700 M⁻¹ s⁻¹
- IC50 [3]: 1900 nM
B1: 18–913 (peptide)
peptide: CLDLQYDMFGALHCV

B2: IL-17A residues 38–155 with the mutations N68D/C129S (ligand, human, UniProt Q16552 38-155, looked up)
chain: DKNFPRTVMVNLNIHNRNTNTNPKRSSDYYDRSTSPWNLHRNEDPERYPSVIWEAKCRHLGCINADGNVDYHMNSVPIQQEILVLRREPPHSPNSFRLEKILVSVGCTCVTPIVHHVA
notes: construct numbers and the two mutations count on the precursor protein; Crystallography construct
- binding result [4]: binds
